B1: PTPN9 (parent)
chain: TQHLPRECLPENLGGYVKIDLATW
B2: CFHR2 (parent)
chain: FVENGHSESSGQTHLEGDTVQIIC

Variants of: B1
Assay: protein stability index of a GFP-peptide fusion (GPS, HEK-293T) (PSI 1-6); higher = more stable
Settings: c terminus: a fixed tail appended
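Also: lentivirally expressed fusions sorted by FACS into six bins by GFP to DsRed ratio, PSI derived from sequencing read proportions per bin multiplied by bin number.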

Protein stability index of substitutions, site by site:
T1: K 1.88 | V 1.74 | Q 2.05 | S 2.11 | M 1.57 | E 2.06 | D 2.51 | N 2.18 | A 2.06 | Y 2.31 | C 1.51 | W 2.54 | I 1.72 | R 2.1 | G 2.15 | L 1.67 | F 2.14 | H 2.07 | P 2.07
H3: D 2.86 | C 1.91 | A 1.84 | L 1.92 | W 1.65 | Y 1.66 | N 2.03 | R 1.56 | V 1.64 | K 2.03 | T 2.45 | M 1.92 | G 2.1 | E 2.28 | P 1.77 | Q 1.91 | S 2.15 | F 2.35 | I 1.79
Q2: S 1.73 | K 1.86 | V 1.66 | C 2.11 | E 2.08 | H 1.52 | F 1.31 | Y 2.48 | M 1.47 | W 1.49 | L 2.17 | G 2.5 | R 1.76 | D 2.02 | A 1.84 | N 2.05 | P 2.02 | T 1.99 | I 1.96
L4: F 2.06 | N 2 | S 1.8 | G 1.96 | D 2.31 | A 1.8 | P 2.5 | Q 2.82 | I 1.86 | V 1.96 | T 1.98 | M 2.38 | C 2.43 | E 2.46 | H 2.53 | K 2.1 | R 2.04

Variants of: B2
Assay: as above
Settings: c terminus: a fixed tail appended

Protein stability index, by site and new letter:
C24: D 4.46 | P 3.87 | A 3.96 | R 3.57 | E 3.88 | M 2.28 | L 2.38 | Q 4.31 | Y 2.08 | T 3.61 | H 3.23 | K 3.29 | V 1.95 | G 3.8 | F 1.88 | N 3.42 | W 3.05 | I 2.49 | S 3.91
I22: N 3.49 | D 4.25 | C 3.17 | W 1.67 | S 4.26 | M 2.63 | Y 3.1 | T 3.87 | P 3.99 | A 3.56 | R 3.53 | E 4.08 | Q 3.74 | G 3.85 | H 3.58 | V 3.02 | K 3.74 | L 2.34 | F 3.03
V20: K 3.06 | G 4 | A 3.64 | M 2.59 | E 4.03 | W 1.57 | Q 4.09 | T 3.74 | P 3.26 | S 2.74 | H 3.41 | C 2.69 | Y 2.71 | R 3.3 | I 2.19 | F 2.02 | D 3.81 | L 2.45 | N 3.66
E16: G 2.01 | N 2.15 | H 1.86 | D 3.12 | M 2.14 | L 2.59 | S 2.71 | I 2.25 | T 2.62 | R 2.63 | C 1.82 | P 2.42 | A 2.13 | V 1.76 | K 2.19 | Q 2.33
I23: V 3.22 | K 3.35 | T 3.88 | Q 3.35 | P 3.24 | D 4.42 | F 2.1 | N 3.77 | G 3.52 | W 2.35 | H 3.47 | S 3.21 | R 2.9 | C 2.73 | M 2.83 | E 4.13 | L 3.71 | A 3.95 | Y 2.11
D18: V 2.34 | L 2.62 | A 2.13 | F 2.33 | K 2.52 | Y 2.36 | N 2.25 | E 2.76 | C 1.65 | T 2.31 | G 2.3 | M 1.83 | Q 2.47 | I 2.02 | S 2.58 | W 1.62 | P 2.23 | H 2.28 | R 2.07
L15: A 3.22 | S 3.22 | T 3.12 | Q 3.65 | M 3.13 | F 2.2 | E 3.15 | G 2.9 | I 2.69 | D 3.4 | K 3.25 | H 3 | W 1.53 | C 2.78 | R 2.87 | Y 2.76 | N 3.49 | P 3.2 | V 2.99
G17: E 4.47 | M 2.29 | Q 2.97 | I 2.05 | N 2.9 | P 2.81 | A 2.3 | K 2.54 | F 1.8 | T 2.91 | H 2.99 | D 3.46 | R 2.52 | L 2.08 | V 2.11 | Y 1.73 | S 2.77 | W 1.79 | C 2.28
H14: F 1.89 | I 3.28 | D 3.29 | L 2.37 | S 3.02 | M 2.35 | W 1.75 | T 3.08 | N 3.43 | E 4.18 | A 3.11 | R 2.89 | K 2.35 | P 2.83 | V 2.95 | C 1.96 | Y 2.52 | Q 3.46 | G 2.47
Q21: K 2.83 | D 3.69 | H 2.24 | N 3.29 | A 3.11 | G 3.01 | P 3.04 | M 1.92 | Y 2.58 | E 3.15 | F 1.91 | R 2.9 | I 1.82 | V 1.85 | C 2.18 | T 2.79 | L 1.17 | S 2.91
T19: Q 3.19 | S 3.21 | I 2.62 | M 2.33 | E 3.09 | G 3.25 | K 2.82 | Y 2.24 | H 3.1 | L 2.14 | W 1.53 | D 3.68 | C 2.84 | P 3.13 | R 2.37 | F 2.66 | N 3.71 | V 3.3
G11: D 3.4 | E 3.32 | T 2.86 | W 2.33 | H 2.67 | N 3.09 | Y 2.04 | L 2.5 | P 3.22 | V 2.67 | M 2.03 | I 1.81 | R 2.86 | Q 2.96 | K 2.39 | S 2.48 | C 2.19 | F 1.98
Q12: M 1.76 | V 2.08 | R 1.92 | T 2.62 | D 3.46 | H 2.4 | N 3.39 | W 2.35 | E 3.67 | K 2.05 | G 3.2 | A 2.43 | F 2.23 | S 2.49 | L 1.69 | C 1.86 | P 3.19 | Y 1.62 | I 2.06
T13: D 3.43 | G 3.03 | R 2.47 | E 3.3 | H 2.34 | P 2.87 | F 1.88 | V 2.24 | Y 2.19 | W 1.85 | A 2.54 | L 2.29 | N 3.35 | K 2.48 | M 2.19 | C 2.55 | I 2.06 | S 2.95 | Q 3.18

Source: the supplement of paper PMC10567573
